According to patent US20240270846A1 (published 2024):

Assays:
[1] = target: T1, biotin-labeled human CD137 fused to human IgG1 Fc fragment (human, biotin-labeled); experiment: bead ELISA, IgG on biotin-human CD137-Fc on streptavidin beads, no free CD3e
T1 construct: Immobilised on streptavidin beads through biotin; also called human CD137-Fc; biotin-human CD137-Fc

[2] = target: T1, biotin-labeled human CD137 fused to …; experiment: competitive bead ELISA, IgG on biotin-human CD137-Fc, competitor free CD3 epsilon peptide 125 pmol/well
[3] = target: T1, biotin-labeled human CD137 fused to …; experiment: competitive bead ELISA, decrease of signal on biotin-human CD137-Fc with 125 pmol/well free CD3 epsilon peptide against 0
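Wherever ELISA signal, free CD3e 125 pmol/well is given: bead ELISA on streptavidin-coated magnetic beads, with the signal read as well fluorescence 2 min after APS-5 addition.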

Binder | ELISA signal, free CD3e 0 pmol/well [1] | ELISA signal, free CD3e 125 pmol/well [2] | Signal decrease [3]
dBBDu124 (antibody, human IgG1, V domains shown, IgG: VH joined to human IgG1 CH1-Fc, GLS3000 as light chain; also called DADU01_3_#002; DADU01_3 #002) VH: QVQLVESGGGLVQPGRSLRLSCAASGFTFSNAWMHWVRQAPGKGLEWVAQIKDKQNLYNAYYAESVKGRFTISRDDSKNSIYLQMNSLKTEDTAVYYCHYVHYASASTVLPAFGVDAWGQGTTVTVSS VL: DIVMTQSPLSLPVTPGEPASISCRSSQSLVHSNRNTYLHWYQQKPGQAPRLLIYKVSNRFSGVPDRFSGSGSGTDFTLKISRVEAEDVGVYYCGQGTQVPYTFGQGTKLEIK | 6620 | 2120 | 68%
dBBDu167 (antibody, human IgG1, V domains shown, IgG: VH joined to human IgG1 CH1-Fc, GLS3000 as light chain) VH: QVQLVESGGGLVQPGRSLRLSCAASGFTFSNAWMHWVRQAPGKGLEWVAQIKDKGNLYAAYYAPSVKGRFTISRDDSKNSIYLQMNSLKTEDTAVYYCHYVHYASAGGGLPGFGVDAWGQGTTVTVSS VL: DIVMTQSPLSLPVTPGEPASISCRSSQSLVHSNRNTYLHWYQQKPGQAPRLLIYKVSNRFSGVPDRFSGSGSGTDFTLKISRVEAEDVGVYYCGQGTQVPYTFGQGTKLEIK | 25700 | 1940 | 92.5%
dBBDu193 (antibody, human IgG1, V domains shown, IgG: VH joined to human IgG1 CH1-Fc, GLS3000 as light chain) VH: QVQLVESGGGLVQPGRSLRLSCAASGFTFSNAWMHWVRQAPGKGLEWVAQIKDRSNQYATYYAPSVKGRFTISRDDSKNSIYLQMNSLKTEDTAVYYCHYVHYSAASTLLPSFGVDAWGQGTTVTVSS VL: DIVMTQSPLSLPVTPGEPASISCRSSQSLVHSNRNTYLHWYQQKPGQAPRLLIYKVSNRFSGVPDRFSGSGSGTDFTLKISRVEAEDVGVYYCGQGTQVPYTFGQGTKLEIK | 18200 | 2280 | 87.5%
dBBDu183 (antibody, human IgG1, V domains shown, IgG: VH joined to human IgG1 CH1-Fc, GLS3000 as light chain) VH: QVQLVESGGGLVQPGRSLRLSCAASGFTFSNAWMHWVRQAPGKGLEWVAQIKDKGNAYAAYYAPSVKGRFTISRDDSKNSIYLQMNSLKTEDTAVYYCHYVHYASASTVLPAFGVDAWGQGTTVTVSS VL: DIVMTQSPLSLPVTPGEPASISCRSSQSLVHSNRNTYLHWYQQKPGQAPRLLIYKVSNRFSGVPDRFSGSGSGTDFTLKISRVEAEDVGVYYCGQGTQVPYTFGQGTKLEIK | 34000 | 2370 | 93%
dBBDu126 (antibody, human IgG1, V domains shown, IgG: VH joined to human IgG1 CH1-Fc, GLS3000 as light chain; also called DADU01_3_#001; DADU01_3 #001) VH: QVQLVESGGGLVQPGRSLRLSCAASGFTFSIAWMHWVRQAPGKGLEWVAQIKDRVNAYEAYYAPSVKGRFTISRDDSKNSIYLQMNSLKTEDTAVYYCRYVHYASYYDLLGYGGVDAWGQGTTVTVSS VL: DIVMTQSPLSLPVTPGEPASISCRSSQSLVHSNRNTYLHWYQQKPGQAPRLLIYKVSNRFSGVPDRFSGSGSGTDFTLKISRVEAEDVGVYYCGQGTQVPYTFGQGTKLEIK | 116000 | 2610 | 97.8%
dBBDu199 (antibody, human IgG1, V domains shown, IgG: VH joined to human IgG1 CH1-Fc, GLS3000 as light chain) VH: QVQLVESGGGLVQPGRSLRLSCAASGFTFSNAWMHWVRQAPGKGLEWVAQIKDKQSGYNTYYAPSVKGRFTISRDDSKNSIYLQMNSLKTEDTAVYYCHYVHYASASTVLPAFGVDAWGQGTTVTVSS VL: DIVMTQSPLSLPVTPGEPASISCRSSQSLVHSNRNTYLHWYQQKPGQAPRLLIYKVSNRFSGVPDRFSGSGSGTDFTLKISRVEAEDVGVYYCGQGTQVPYTFGQGTKLEIK | 40900 | 2370 | 94.2%
dBBDu196 (antibody, human IgG1, V domains shown, IgG: VH joined to human IgG1 CH1-Fc, GLS3000 as light chain) VH: QVQLVESGGGLVQPGRSLRLSCAASGFTFSNAWMHWVRQAPGKGLEWVAQIKDRGNAYNAYYAESVKGRFTISRDDSKNSIYLQMNSLKTEDTAVYYCHYVHYASASTVLPAFGVDAWGQGTTVTVSS VL: DIVMTQSPLSLPVTPGEPASISCRSSQSLVHSNRNTYLHWYQQKPGQAPRLLIYKVSNRFSGVPDRFSGSGSGTDFTLKISRVEAEDVGVYYCGQGTQVPYTFGQGTKLEIK | 33100 | 2220 | 93.3%
dBBDu127 (antibody, human IgG1, V domains shown, IgG: VH joined to human IgG1 CH1-Fc, GLS3000 as light chain; also called DXDU01_3_#051; DXDU01_3 #051) VH: QVQLVESGGGLVQPGRSLRLSCAASGFTFSNAWMHWVRQAPGKGLEWVAQIKDRGQQYNAYYAPSVKGRFTISRDDSKNSIYLQMNSLKTEDTAVYYCHYVHYASASSVLPGYGVDAWGQGTTVTVSS VL: DIVMTQSPLSLPVTPGEPASISCRSSQSLVHSNRNTYLHWYQQKPGQAPRLLIYKVSNRFSGVPDRFSGSGSGTDFTLKISRVEAEDVGVYYCGQGTQVPYTFGQGTKLEIK | 3230 | 2200 | 32%
dBBDu173 (antibody, human IgG1, V domains shown, IgG: VH joined to human IgG1 CH1-Fc, GLS3000 as light chain) VH: QVQLVESGGGLVQPGRSLRLSCAASGFTFSNAWMHWVRQAPGKGLEWVAQIKDKGNLYAAYYAPSVKGRFTISRDDSKNSIYLQMNSLKTEDTAVYYCHYVHYASAGGGLSAYGVDAWGQGTTVTVSS VL: DIVMTQSPLSLPVTPGEPASISCRSSQSLVHSNRNTYLHWYQQKPGQAPRLLIYKVSNRFSGVPDRFSGSGSGTDFTLKISRVEAEDVGVYYCGQGTQVPYTFGQGTKLEIK | 6540 | 2040 | 68.8%
dBBDu189 (antibody, human IgG1, V domains shown, IgG: VH joined to human IgG1 CH1-Fc, GLS3000 as light chain) VH: QVQLVESGGGLVQPGRSLRLSCAASGFTFSNAWMHWVRQAPGKGLEWIAQIKDRSNQYATYYAPSVKGRFTISRDDSKNSIYLQMNSLKTEDTAVYYCHYVHYAQASSLLPSFGVDAWGQGTTVTVSS VL: DIVMTQSPLSLPVTPGEPASISCRSSQSLVHSNRNTYLHWYQQKPGQAPRLLIYKVSNRFSGVPDRFSGSGSGTDFTLKISRVEAEDVGVYYCGQGTQVPYTFGQGTKLEIK | 27400 | 2190 | 92%
dBBDu179 (antibody, human IgG1, V domains shown, IgG: VH joined to human IgG1 CH1-Fc, GLS3000 as light chain) VH: QVQLVESGGGLVQPGRSLRLSCAASGFTFSNAWMHWVRQAPGKGLEWVAQIKDRSNQYATYYAPSVKGRFTISRDDSKNSIYLQMNSLKTEDTAVYYCHYVHYASASTVLPAFGVDAWGQGTTVTVSS VL: DIVMTQSPLSLPVTPGEPASISCRSSQSLVHSNRNTYLHWYQQKPGQAPRLLIYKVSNRFSGVPDRFSGSGSGTDFTLKISRVEAEDVGVYYCGQGTQVPYTFGQGTKLEIK | 61000 | 2620 | 95.7%
dBBDu186 (antibody, human IgG1, V domains shown, IgG: VH joined to human IgG1 CH1-Fc, GLS3000 as light chain) VH: QVQLVESGGGLVQPGRSLRLSCAASGFTFSNAWMHWVRQAPGKGLEWVAQIKDRSNQYATYYAPSVKGRFTISRDDSKNSIYLQMNSLKTEDTAVYYCHYVHYAQASTVLPAFGVDAWGQGTTVTVSS VL: DIVMTQSPLSLPVTPGEPASISCRSSQSLVHSNRNTYLHWYQQKPGQAPRLLIYKVSNRFSGVPDRFSGSGSGTDFTLKISRVEAEDVGVYYCGQGTQVPYTFGQGTKLEIK | 34800 | 2500 | 92.8%
